We go through one molecule from publication PMC11527256, “Linkage-specific ubiquitin binding interfaces modulate the activity of the chlamydial deubiquitinase Cdu1 towards poly-ubiquitin substrates” (PLOS Pathogens, 2024).

The target of this test is T1, ubiquitin propargylamide (UB-PA) (UniProt P0CG48 1-75, C-terminal propargylamide).
T1 construct: also called ubiquitin-propargylamide suicide probe
The test is described as follows: NMR chemical shift perturbation of the covalent adduct against the apo protein. Conditions: both partners purified.

B1: Cdu1(130-401), wildtype (enzyme)
chain: PVKTQEDLLPLVPEQVFVEMYEDMARRQTIEALVPAWDSDIIFKCLCYFHTLYPGLIPLETFPPATIFNFKQKIISILEDKKAVLRGEPIKGPLPICCSKENYRRHLQRTTLLPVFMWYHPTPKTLSDTMQTMKQLAIKGSVGASHWLLVIVDIQARRLVYFDSLYNYVMPPENMKKELQSFAQQLDQVYPAYDSKKFSVKIAAKEVIQRGSGSSCGAWCCQFLHWYLKDPLTDALNDLPVDSVERHENLASFVQACEAAVQDLPELSWPEA
notes: source: E. coli Rosetta 2(DE3), purified (Ni-NTA, 3C cleavage, SEC); not shown: 6xHis, N-terminal, cleaved
For B1, the binding result is “binds”.
